Target: MDM2 (UniProt Q00987)
Assay: cell-based or functional assay

Sequence of UniProt Q00987 (Q00987 whole entry): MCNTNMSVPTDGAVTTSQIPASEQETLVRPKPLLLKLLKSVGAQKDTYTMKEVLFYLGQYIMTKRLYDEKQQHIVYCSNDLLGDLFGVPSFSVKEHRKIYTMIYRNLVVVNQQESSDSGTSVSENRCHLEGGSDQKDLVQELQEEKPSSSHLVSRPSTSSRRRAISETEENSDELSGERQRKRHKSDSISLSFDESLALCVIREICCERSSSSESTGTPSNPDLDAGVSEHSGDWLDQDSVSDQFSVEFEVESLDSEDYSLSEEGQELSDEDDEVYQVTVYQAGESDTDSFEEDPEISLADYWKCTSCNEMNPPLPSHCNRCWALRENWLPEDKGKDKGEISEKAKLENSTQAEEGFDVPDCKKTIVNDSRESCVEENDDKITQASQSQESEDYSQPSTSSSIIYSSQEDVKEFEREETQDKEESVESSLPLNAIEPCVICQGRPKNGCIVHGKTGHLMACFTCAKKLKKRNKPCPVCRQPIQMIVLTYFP

Substance: TAT_^DPMIα (peptide)
- IC50, viability of T47D cells after 48 h (resazurin reduction): 36.6 µM

Reference: patent US20210087238A1, “CELL PENETRATING PEPTIDES AND RELATED COMPOSITIONS AND METHODS” (Phylogica Limited, priority 2017, published 2021)
